The data set deals with the molecule itself. Description: SEC.

Results on two proteins are retold here after article PMC3361975 (Biochemistry, 2012).

As usually defined, the stoichiometry N is the number of molecules, sites or subunits per partner or assembly.

B1: 17X-PTDH-R301A (phosphite dehydrogenase from Pseudomonas stutzeri WM88, 17X background, Arg301Ala) (enzyme, UniProt O69054 1-336, looked up)
chain: MLPKLVITHRVHEEILQLLAPHCELITNQTDSTLTREEILRRCRDAQAMMAFMPDRVDADFLQACPELRVIGCALKGFDNFDVDACTARGVWLTFVPDLLTVPTAELAIGLAVGLGRHLRAADAFVRSGKFRGWQPRFYGTGLDNATVGFLGMGAIGLAMADRLQGWGATLQYHAAKALDTQTEQRLGLRQVACSELFASSDFILLALPLNADTLHLVNAELLALVRPGALLVNPCRGSVVDEAAVLAALERGQLGGYAADVFEMEDWARADRPQQIDPALLAHPNTLFTPHIGSAVRAVALEIERCAAQNILQALAGERPINAVNRLPKANPAAD
For the protein B1, the “stoichiometry N” value came out at 2.

B2: 17X-PTDH (thermostable phosphite dehydrogenase mutant TS-PTDH with the additional E175A mutation) (enzyme, Pseudomonas stutzeri WM88, UniProt O69054 1-336, looked up)
chain: MLPKLVITHRVHEEILQLLAPHCELITNQTDSTLTREEILRRCRDAQAMMAFMPDRVDADFLQACPELRVIGCALKGFDNFDVDACTARGVWLTFVPDLLTVPTAELAIGLAVGLGRHLRAADAFVRSGKFRGWQPRFYGTGLDNATVGFLGMGAIGLAMADRLQGWGATLQYHAAKALDTQTEQRLGLRQVACSELFASSDFILLALPLNADTLHLVNAELLALVRPGALLVNPCRGSVVDEAAVLAALERGQLGGYAADVFEMEDWARADRPQQIDPALLAHPNTLFTPHIGSAVRAVRLEIERCAAQNILQALAGERPINAVNRLPKANPAAD
Consider B2, for which the binding result was “binds”.
